Where a chain is given by its changes, count along the chain named.

Assay [1] addresses T1, human endothelin receptor A (hETAR) (human, UniProt P25101 21-427).
T1 construct: GenBank AAB20278; co-expressed with Aequorin in the calcium flux assay; also called human ETAR; CHO-DHFR-hETAR
T1 sequence: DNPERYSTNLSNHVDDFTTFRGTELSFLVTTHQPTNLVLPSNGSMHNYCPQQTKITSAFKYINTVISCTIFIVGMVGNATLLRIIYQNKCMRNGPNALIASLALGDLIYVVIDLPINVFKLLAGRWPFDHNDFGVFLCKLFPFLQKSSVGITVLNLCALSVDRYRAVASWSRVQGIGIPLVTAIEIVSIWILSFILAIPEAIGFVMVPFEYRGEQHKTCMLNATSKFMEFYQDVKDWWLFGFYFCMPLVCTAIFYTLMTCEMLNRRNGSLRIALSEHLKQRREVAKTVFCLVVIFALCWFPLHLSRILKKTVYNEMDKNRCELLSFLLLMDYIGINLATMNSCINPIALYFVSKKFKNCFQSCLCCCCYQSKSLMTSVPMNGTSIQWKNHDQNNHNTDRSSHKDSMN
Kind of assay: FACS on CHO-DHFR-ETAR cells. The procedure: 10⁵ CHO-DHFR-hETAR cells were digested and collected with PBS containing 10 mM EDTA, separately added into 1.5 mL EP tubes, the supernatant was discarded after centrifugation, and the negative control sample was resuspended in a flow loading buffer (PBS, 2% FBS). Positive treatment group cells in each tube were added with 200 μL of the antibody supernatant, and incubated at room temperature; after the completion of the incubation, the cells were centrifuged at 1500 rpm, the supernatant was discarded, the cell precipitate was washed once with a flow loading buffer, and centrifuged again, and the cells were resuspended; 1:50 diluted FITC labeled goat anti-mouse fluorescent secondary antibody (BD Pharmingen) was added to the cell resuspension solution at 200 μL/well, and the cells were incubated at room temperature for 30 min in the dark; and the cells were centrifuged, the supernatant was discarded, the cell was washed once with a flow loading buffer, and centrifuged, the cell precipitate was resuspended with a flow loading buffer for on-machine detection. The supernatant expressing recombinant anti-ETAR functional antibody was specifically bound to CHO-DHFR-ETAR cells expressing ETAR. The gray peaks and dotted line peaks were negative controls; and the solid line peak corresponding to the hybridoma cell supernatant shifted obviously to the right.

The target of assay [2] is T1, human endothelin receptor A (hETAR). Kind of assay: cell-based or functional assay.

B1: ETAR antibody A-2 (antibody, mouse IgG1, V domains shown)
VH: QIQLVQSGAELAKPGASVRMSCETSGYTFTSYWIHWIKERPGQGLEWIGYINPDTDYSEYNQKFKDKARLTADKSSTTAYMELNSLTFDDSAVYYCASAGYYFFDFWGQGTTLTVSS
VL: DIQMTQSPASLSTSVGETVTITCRASENIYSYLAWYQQRQGKSPHLLVNNAKTLAEGVPSRFSGSGSGTHFSLRISGLQPEDFGSYYCQHHYGIPFTFGGGTKLSIKR
notes: also called L2H2
Consider B1, for which, in assay [1], the binding result is given as “binds”.

B2: ETAR antibody A-12 (antibody, mouse IgG1, V domains shown)
VH: EVKLVESGGRLVQPGNSLRLSCATSGFTFSDYYMSWVRQTPGRALEWLSFIRNRANGYTTEYSASVKGRFTISRDNSQSILYLHMSTLRPEDSATYYCVRDSYHYGYFDVWGAGTTVTVSS
VL: EIQMTQTPSSLSASLGDRVTITCSASQGINNYLNWYQQKPGGKTRLLIYYTSTLQSGVPSRFSGSGSGTHYSLTISNLEPEDIATYYCQQFSKLRTFGGGTRLEIKR
notes: also called L12H12
With B2, the binding result in assay [1] is “binds”.

B3: ETAR antibody A-9 (antibody, mouse IgG1, V domains shown)
VH: EVQLQQPGGGLVQPGGSLTLSCATSGFTFSSYGMSWVRQTPAKRLELVATISTNGATANYPDSVKGRFTISRDNAKSTLYLQMRSLKSEDTAMYYCATEKGAMGYWGQGTSVTVSS
VL: DVLMTQTPLSLPVSLGDQASISCRSSQNIVHSTGNTYLEWYLQKPGQSPKLLIYKVSNRFSGVPNRFRGSGSGTDFTLKITRVEAEDLGIYYCFQGSHFPFTFGSGTKLEIKR
B3: the “IC50, calcium flux inhibition curve” value in assay [2] was found to be 88 nM.

B4: ETAR antibody A-7 (antibody, mouse IgG1, V domains shown)
VH: EVHLVESGGGLVQPGGSLKLSCAASGFTFSTYGMSWVRQTPDKRLELVATINTNGGTTYYRDSVKGRFTISRDNAKNTLYLQMSSLKSDDTAMYYCARDYGAMDYWGQGTSVTVSS
VL: B3 VL with Q18H, N28Y, N35T, K50Q, N65D, R68T, K79R, T81S, I90V, Y92F
notes: also called L7H7
In the case of B4, in assay [1], the binding result was “binds”.

The values are drawn from patent publication US20260125484A1 (GMAX BIOPHARM, published 2026).
